Data taken from patent US20090099029.

T1: Bovine, dephosphorylated, Myelin Basic Protein (MBP), P02687
T1 chain: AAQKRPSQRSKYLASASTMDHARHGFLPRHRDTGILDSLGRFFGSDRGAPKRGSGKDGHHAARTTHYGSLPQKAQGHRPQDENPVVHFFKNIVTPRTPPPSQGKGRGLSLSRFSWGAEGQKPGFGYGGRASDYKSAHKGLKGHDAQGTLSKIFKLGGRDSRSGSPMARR

B1: RPS6KA4(MSK2) (protein)
chain: MGDEDDDESCAVELRITEANLTGHEEKVSVENFELLKVLGTGAYGKVFLVRKAGGHDAGKLYAMKVLRKAALVQRAKTQEHTRTERSVLELVRQAPFLVTLHYAFQTDAKLHLILDYVSGGEMFTHLYQRQYFKEAEVRVYGGEIVLALEHLHKLGIIYRDLKLENVLLDSEGHIVLTDFGLSKEFLTEEKERTFSFCGTIEYMAPEIIRSKTGHGKAVDWWSLGILLFELLTGASPFTLEGERNTQAEVSRRILKCSPPFPPRIGPVAQDLLQRLLCKDPKKRLGAGPQGAQEVRNHPFFQGLDWVALAARKIPAPFRPQIRSELDVGNFAEEFTRLEPVYSPPGSPPPGDPRIFQGYSFVAPSILFDHNNAVMTDGLEAPGAGDRPGRAAVARSAMMQDSPFFQQYELDLREPALGQGSFSVCRRCRQRQSGQEFAVKILSRRLEANTQREVAALRLCQSHPNVVNLHEVHHDQLHTYLVLELLRGGELLEHIRKKRHFSESEASQILRSLVSAVSFMHEEAGVVHRDLKPENILYADDTPGAPVKIIDFGFARLRPQSPGVPMQTPCFTLQYAAPELLAQQGYDESCDLWSLGVILYMMLSGQVPFQGASGQGGQSQAAEIMCKIREGRFSLDGEAWQGVSEEAKELVRGLLTVDPAKRLKLEGLRGSSWLQDGSARSSPPLRTPDVLESSGPAVRSGLNATFMAFNRGKREGFFLKSVENAPLAKRRKQKLRSATASRRGSPAPANPGRAPVASKGAPRRANGPLPPS
B2: RPS6KA2(RSK3) (protein)
chain: MDLSMKKFAVRRFFSVYLRRKSRSKSSSLSRLEEEGVVKEIDISHHVKEGFEKADPSQFELLKVLGQGSYGKVFLVRKVKGSDAGQLYAMKVLKKATLKVRDRVRSKMERDILAEVNHPFIVKLHYAFQTEGKLYLILDFLRGGDLFTRLSKEVMFTEEDVKFYLAELALALDHLHSLGIIYRDLKPENILLDEEGHIKITDFGLSKEAIDHDKRAYSFCGTIEYMAPEVVNRRGHTQSADWWSFGVLMFEMLTGSLPFQGKDRKETMALILKAKLGMPQFLSGEAQSLLRALFKRNPCNRLGAGIDGVEEIKRHPFFVTIDWNTLYRKEIKPPFKPAVGRPEDTFHFDPEFTARTPTDSPGVPPSANAHHLFRGFSFVASSLIQEPSQQDLHKVPVHPIVQQLHGNNIHFTDGYEIKEDIGVGSYSVCKRCVHKATDTEYAVKIIDKSKRDPSEEIEILLRYGQHPNIITLKDVYDDGKFVYLVMELMRGGELLDRILRQRYFSEREASDVLCTITKTMDYLHSQGVVHRDLKPSNILYRDESGSPESIRVCDFGFAKQLRAGNGLLMTPCYTANFVAPEVLKRQGYDAACDIWSLGILLYTMLAGFTPFANGPDDTPEEILARIGSGKYALSGGNWDSISDAAKDVVSKMLHVDPHQRLTAMQVLKHPWVVNREYLSPNQLSRQDVHLVKGAMAATYFALNRTPQAPRLEPVLSSNLAQRRGMKRLTSTRL
B3: SRPK2 (protein)
chain: MSSRKVLAIQARKRRPKREKHPKKPEPQQKAPLVPPPPPPPPPPPPPLPDPTPPEPEEEILGSDDEEQEDPADYCKGGYHPVKIGDLFNGRYHVIRKLGWGHFSTVWLCWDMQGKRFVAMKVVKSAQHYTETALDEIKLLKCVRESDPSDPNKDMVVQLIDDFKISGMNGIHVCMVFEVLGHHLLKWIIKSNYQGLPVRCVKSIIRQVLQGLDYLHSKCKIIHTDIKPENILMCVDDAYVRRMAAEATEWQKAGAPPPSGSAVSTAPQQKPIGKISKNKKKKLKKKQKRQAELLEKRLQEIEELEREAERKIIEENITSAAPSNDQDGEYCPEVKLKTTGLEEAAEAETAKDNGEAEDQEEKEDAEKENIEKDEDDVDQELANIDPTWIESPKTNGHIENGPFSLEQQLDDEDDDEEDCPNPEEYNLDEPNAESDYTYSSSYEQFNGELPNGRHKIPESQFPEFSTSLFSGSLEPVACGSVLSEGSPLTEQEESSPSHDRSRTVSASSTGDLPKAKTRAADLLVNPLDPRNADKIRVKIADLGNACWVHKHFTEDIQTRQYRSIEVLIGAGYSTPADIWSTACMAFELATGDYLFEPHSGEDYSRDEDHIAHIIELLGSIPRHFALSGKYSREFFNRRGELRHITKLKPWSLFDVLVEKYGWPHEDAAQFTDFLIPMLEMVPEKRASAGECLRHPWLNS
B4: EPHB4 (protein)
chain: LCLRKQSNGREAEYSDKHGQYLIGHGTKVYIDPFTYEDPNEAVREFAKEIDVSYVKIEEVIGAGEFGEVCRGRLKAPGKKESCVAIKTLKGGYTERQRREFLSEASIMGQFEHPNIIRLEGVVTNSMPVMILTEFMENGALDSFLRLNDGQFTVIQLVGMLRGIASGMRYLAEMSYVHRDLAARNILVNSNLVCKVSDFGLSRFLEENSSDPTYTSSLGGKIPIRWTAPEAIAFRKFTSASDAWSYGIVMWEVMSFGERPYWDMSNQDVINAIEQDYRLPPPPDCPTSLHQLMLDCWQKDRNARPRFPQVVSALDKMIRNPASLKIVARENGGASHPLLDQRQPHYSAFGSVGEWLRAIKMGRYEESFAAAGFGSFELVSQISAEDLLRIGVTLAGHQKKILASVQHMKSQAKPGTPGGTGGPAPQY
B5: RPS6KB1(p70S6K) (protein)
chain: MRRRRRRDGFYPAPDFRDREAEDMAGVFDIDLDQPEDAGSEDELEEGGQLNESMDHGGVGPYELGMEHCEKFEISETSVNRGPEKIRPECFELLRVLGKGGYGKVFQVRKVTGANTGKIFAMKVLKKAMIVRNAKDTAHTKAERNILEEVKHPFIVDLIYAFQTGGKLYLILEYLSGGELFMQLEREGIFMEDTACFYLAEISMALGHLHQKGIIYRDLKPENIMLNHQGHVKLTDFGLCKESIHDGTVTHTFCGTIEYMAPEILMRSGHNRAVDWWSLGALMYDMLTGAPPFTGENRKKTIDKILKCKLNLPPYLTQEARDLLKKLLKRNAASRLGAGPGDAGEVQAHPFFRHINWEELLARKVEPPFKPLLQSEEDVSQFDSKFTRQTPVDSPDDSTLSESANQVFLGFEYVAPSVLES
B6: SGK2 (protein)
chain: LPDHCYRMNSSPAGTPSPQPSRANGNINLGPSANPNAQPTDFDFLKVIGKGNYGKVLLAKRKSDGAFYAVKVLQKKSILKKKEQSHIMAERSVLLKNVRHPFLVGLRYSFQTPEKLYFVLDYVNGGELFFHLQRERRFLEPRARFYAAEVASAIGYLHSLNIIYRDLKPENILLDCQGHVVLTDFGLCKEGVEPEDTTSTFCGTPEYLAPEVLRKEPYDRAVDWWCLGAVLYEMLHGLPPFYSQDVSQMYENILHQPLQIPGGRTVAACDLLQSLLHKDQRQRLGSKADFLEIKNHVFFSPINWDDLYHKRLTPPFNPNVTGPADLKHFDPEFTQEAVSKSIGCTPDTVASSSGASSAFLGFDYAPEDDDILDC
B7: SLK (protein)
chain: MSFFNFRKIFKLGSEKKKKQYEHVKRDLNPEDFWEIIGELGDGAFGKVYKAQNKETSVLAAAKVIDTKSEEELEDYMVEIDILASCDHPNIVKLLDAFYYENNLWILIEFCAGGAVDAVMLELERPLTESQIQVVCKQTLDALNYLHDNKIIHRDLKAGNILFTLDGDIKLADFGVSAKNTRTIQRRDSFIGTPYWMAPEVVMCETSKDRPYDYKADVWSLGITLIEMAEIEPPHHELNPMRVLLKIAKSEPPTLAQPSRWSSNFKDFLKKCLEKNVDARWTTSQLLQHPFVTVDSNKPIRELIAEAKAEVTEEVEDGKEEDEEEETENSLPIPASKRASSDLSIASSEEDKLSQNACILESVSEKTERSNSEDKLNSKILNEKPTTDEPEKAVEDINEHITDAQLEAMTELHDRTAVIKENEREKRPKLENLPDTEDQETVDINSVSEGKENNIMITLETNIEHNLKSEEEKDQEKQQMFENKLIKSEEIKDTILQTVDLVSQETGEKEANIQAVDSEVGLTKEDTQEKLGEDDKTQKDVISNTSDVIGTCEAADVAQKVDEDSAEDTQSNDGKEVVEVGQKLINKPMVGPEAGGTKEVPIKEIVEMNEIEEGKNKEQAINSSENIMDINEEPGTTEGEEITESSSTEEMEVRSVVADTDQKALGSEVQDASKVTTQIDKEKKEIPVSIKKEPEVTVVSQPTEPQPVLIPSININSDSGENKEEIGSLSKTETILPPESENPKENDNDSGTGSTADTSSIDLNLSISSFLSKTKDSGSISLQETRRQKKTLKKTRKFIVDGVEVSVTTSKIVTDSDSKTEELRFLRRQELRELRFLQKEEQRAQQQLNSKLQQQREQIFRRFEQEMMSKKRQYDQEIENLEKQQKQTIERLEQEHTNRLRDEAKRIKGEQEKELSKFQNMLKNRKKEVINEVEKAPKELRKELMKRRKEELAQSQHAQEQEFVQKQQQELDGSLKKIIQQQKAELANIERECLNNKQQLMRAREAAIWELEERHLQEKHQLLKQQLKDQYFMQRHQLLKRHEKETEQMQRYNQRLIEELKNRQTQERARLPKIQRSEAKTRMAMFKKSLRINSTATPDQDRDKIKQFAAQEEKRQKNERMAQHQKHENQMRDLQLQCEANVRELHQLQNEKCHLLVEHETQKLKELDEEHSQELKEWREKLRPRKKTLEEEFARKLQEQEVFFKMTGESECLNPSTQSRISKFYPIPSLHSTGS
B8: RPS6KB2(p70S6K2) (protein)
chain: MAAVFDLDLETEEGSEGEGEPELSPADACPLAELRAAGLEPVGHYEEVELTETSVNVGPERIGPHCFELLRVLGKGGYGKVFQVRKVQGTNLGKIYAMKVLRKAKIVRNAKDTAHTRAERNILESVKHPFIVELAYAFQTGGKLYLILECLSGGELFTHLEREGIFLEDTACFYLAEITLALGHLHSQGIIYRDLKPENIMLSSQGHIKLTDFGLCKESIHEGAVTHTFCGTIEYMAPEILVRSGHNRAVDWWSLGALMYDMLTGSPPFTAENRKKTMDKIIRGKLALPPYLTPDARDLVKKFLKRNPSQRIGGGPGDAADVQRHPFFRHMNWDDLLAWRVDPPFRPCLQSEEDVSQFDTRFTRQTPVDSPDDTALSESANQAFLGFTYVAPSVLDSIKEGFSFQPKLRSPRRLNSSPRAPVSPLKFSPFEGFRPSPSLPEPTELPLPPLLPPPPPSTTAPLPIRPPSGTKKSKRGRGRPGR
B9: RPS6KA1(RSK1) (protein)
chain: MPLAQLKEPWPLMELVPLDPENGQTSGEEAGLQPSKDEGVLKEISITHHVKAGSEKADPSHFELLKVLGQGSFGKVFLVRKVTRPDSGHLYAMKVLKKATLKVRDRVRTKMERDILADVNHPFVVKLHYAFQTEGKLYLILDFLRGGDLFTRLSKEVMFTEEDVKFYLAELALGLDHLHSLGIIYRDLKPENILLDEEGHIKLTDFGLSKEAIDHEKKAYSFCGTVEYMAPEVVNRQGHSHSADWWSYGVLMFEMLTGSLPFQGKDRKETMTLILKAKLGMPQFLSTEAQSLLRALFKRNPANRLGSGPDGAEEIKRHVFYSTIDWNKLYRREIKPPFKPAVAQPDDTFYFDTEFTSRTPKDSPGIPPSAGAHQLFRGFSFVATGLMEDDGKPRAPQAPLHSVVQQLHGKNLVFSDGYVVKETIGVGSYSECKRCVHKATNMEYAVKVIDKSKRDPSEEIEILLRYGQHPNIITLKDVYDDGKHVYLVTELMRGGELLDKILRQKFFSEREASFVLHTIGKTVEYLHSQGVVHRDLKPSNILYVDESGNPECLRICDFGFAKQLRAENGLLMTPCYTANFVAPEVLKRQGYDEGCDIWSLGILLYTMLAGYTPFANGPSDTPEEILTRIGSGKFTLSGGNWNTVSETAKDLVSKMLHVDPHQRLTAKQVLQHPWVTQKDKLPQSQLSHQDLQLVKGAMAATYSALNSSKPTPQLKPIESSILAQRRVRKLPSTTL

Molecular target: T1, Bovine, dephosphorylated, Myelin Basic …

Row | Protein | MBP Kinase Activity
1 | B1 | Weak
2 | B2 | Negative
3 | B3 | Strong
4 | B4 | Strong
5 | B5 | Negative
6 | B6 | Weak
7 | B7 | Weak
8 | B8 | Negative
9 | B9 | Strong
